Results: PMC11134845

Target: HSV-2G gB ectodomain (recombinant glycoprotein B of Herpes simplex virus 2 strain G, aa 22-724) (Herpes simplex virus 2 (strain G))
Experiment: cryo-EM structure

## HSV-2G gB ectodomain (recombinant glycoprotein B of Herpes simplex virus 2 strain G, aa 22-724) (domain or fragment)
  stoichiometry N: 3
